Reference: paper PMC2614274

Target: T1, DNA polymerase III alpha subunit (PolIIIα), exonuclease-deficient (Thermus aquaticus, UniProt Q9XDH5 1-1220, D20N;D212N)
T1 sequence: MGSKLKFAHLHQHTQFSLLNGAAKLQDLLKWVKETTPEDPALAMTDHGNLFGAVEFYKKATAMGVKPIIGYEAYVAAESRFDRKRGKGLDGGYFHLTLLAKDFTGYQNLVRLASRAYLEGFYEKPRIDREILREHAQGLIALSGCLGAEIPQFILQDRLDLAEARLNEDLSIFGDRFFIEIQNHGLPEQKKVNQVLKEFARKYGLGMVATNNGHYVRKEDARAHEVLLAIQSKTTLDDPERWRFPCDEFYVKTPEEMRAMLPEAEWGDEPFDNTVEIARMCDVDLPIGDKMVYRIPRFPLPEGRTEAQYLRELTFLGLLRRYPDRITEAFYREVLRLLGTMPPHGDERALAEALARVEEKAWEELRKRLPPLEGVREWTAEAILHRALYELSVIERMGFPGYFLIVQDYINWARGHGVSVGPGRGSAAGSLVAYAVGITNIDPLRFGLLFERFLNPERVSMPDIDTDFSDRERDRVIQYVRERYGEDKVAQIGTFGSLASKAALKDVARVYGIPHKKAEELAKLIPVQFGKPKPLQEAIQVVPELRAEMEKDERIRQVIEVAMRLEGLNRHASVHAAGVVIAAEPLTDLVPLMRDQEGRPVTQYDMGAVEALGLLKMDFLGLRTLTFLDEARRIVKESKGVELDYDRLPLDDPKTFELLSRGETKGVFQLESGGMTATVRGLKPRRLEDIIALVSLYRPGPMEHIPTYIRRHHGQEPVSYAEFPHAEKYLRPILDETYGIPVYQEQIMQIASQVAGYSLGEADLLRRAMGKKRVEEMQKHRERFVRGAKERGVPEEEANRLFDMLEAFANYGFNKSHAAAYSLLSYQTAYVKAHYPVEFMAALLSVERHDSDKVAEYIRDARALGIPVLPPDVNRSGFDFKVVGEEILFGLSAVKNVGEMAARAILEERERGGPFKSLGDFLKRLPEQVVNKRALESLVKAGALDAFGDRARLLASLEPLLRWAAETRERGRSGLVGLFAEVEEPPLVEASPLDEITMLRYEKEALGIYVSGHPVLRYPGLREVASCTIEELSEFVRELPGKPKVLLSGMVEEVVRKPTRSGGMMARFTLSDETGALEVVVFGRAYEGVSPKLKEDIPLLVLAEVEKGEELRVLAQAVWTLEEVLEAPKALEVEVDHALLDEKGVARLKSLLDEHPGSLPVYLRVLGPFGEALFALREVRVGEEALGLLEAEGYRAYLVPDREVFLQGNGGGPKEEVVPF
Assay: X-ray crystallography

B1: primer-template DNA, ddC-terminated primer (dsDNA)
DNA 1: CGAAACGACGGCCAGTGCCAC
DNA 2: TTTTTTGTGGCACTGGCCGTCGTTTCG
modifications: 2',3'-dideoxycytidine at primer 3' end (incorporated in situ by the polymerase)
Q: Does B1 bind?
A: binds
